Measurements: publication PMC10891854

Target: recombinant Pseudothermotoga hypogea iron-containing alcohol dehydrogenase (Pseudothermotoga hypogea)
Experiment: SEC; Superdex 200 (2.6 x 60 cm), 50 mM Tris-HCl pH 7.8, 100 mM KCl, 2 mL/min; native size worked out from the elution volume against standard proteins and compared with the subunit size by SDS-PAGE

stoichiometry N: 2
Substance: recombinant Pseudothermotoga hypogea iron-containing alcohol dehydrogenase (enzyme)
